# Experimental data reported in publication PMC7351999, “Structure of the DOCK2−ELMO1 complex provides insights into regulation of the auto-inhibited state” (Nature Communications, 2020).
# What was measured:
# [1] = target: the molecule itself; assay: SEC; co-expressed and co-purified DOCK2–ELMO1 complex, wild type and dimer mutant; gel filtration buffer 50 mM Tris HCl (pH 8.0), 200 mM NaCl, 2 mM DTT; Superose 6 / Superdex 200 5/150GL
# [2] = target: T1, RHOG D38A mutant (human, UniProt P84095 1-179, D38A); assay: ITC; ELMO2^RBD injected into the cell containing GMPPNP-loaded (activated) RHOG; 20 mM Tris-HCl (pH 7.5), 100 mM NaCl, 1 mM DTT; 25 °C; details: both partners purified
# T1 construct: RHOG, human, GeneID 391, amino acids 1–179 with D38A; also called RHOG Asp38 to Ala mutant; source: E. coli BL21 (DE3) CodonPlus, purified (nickel-nitrilotriacetic acid, thrombin cleavage, Superdex 75)
# T1 sequence (P84095 1-179 D38A): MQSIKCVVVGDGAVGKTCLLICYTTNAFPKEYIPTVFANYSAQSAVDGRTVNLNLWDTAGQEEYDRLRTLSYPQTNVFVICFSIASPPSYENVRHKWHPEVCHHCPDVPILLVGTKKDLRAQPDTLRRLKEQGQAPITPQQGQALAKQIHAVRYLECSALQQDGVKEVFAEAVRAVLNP
# [3] = target: T2, human RHOG (amino acids 1–179) (human, UniProt P84095 1-179); assay: as above; details: both partners purified
# T2 construct: RHOG, human, GeneID 391, amino acids 1–179; Loaded with GMPPNP (or GDP) as told for each assay; also called wild-type RHOG; source: E. coli BL21 (DE3) CodonPlus, purified (nickel-nitrilotriacetic acid, thrombin cleavage, Superdex 75)
# T2 sequence (P84095 1-179): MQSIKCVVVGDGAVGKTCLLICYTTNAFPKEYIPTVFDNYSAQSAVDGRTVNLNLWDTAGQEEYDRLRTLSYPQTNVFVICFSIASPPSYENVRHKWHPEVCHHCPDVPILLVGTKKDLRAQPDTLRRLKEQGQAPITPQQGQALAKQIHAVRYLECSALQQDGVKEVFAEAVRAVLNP
Binder,stoichiometry N [1],Kd [2] [µM],Kd [3] [µM]
"human DOCK2 (dedicator of cytokinesis 2) (natural protein, DOCK2, human; Tag removed with TEV protease; samples for cryo-EM were cross-linked with glutaraldehyde; also called DOCK2^WT; source: High Five insect cells (baculovirus), co-expressed with ELMO1, purified (Strep-Tactin, Resource Q, Superose 6); not shown: double StrepII, C-terminal, cleaved) not shown",2,–,–
"N-terminal RBD domain of murine ELMO2 (amino acids 1–80) (domain or fragment, UniProt Q8BHL5 1-80, looked up, also called ELMO2^RBD; wild-type ELMO2^RBD; source: E. coli BL21 (DE3) CodonPlus, purified (GSH resin, thrombin cleavage on the resin, Superdex 75); not shown: GST, N-terminal, cleaved) MPPPSDIVKVAIEWPGANAQLLEIDQKRPLASIIKEVCDGWSLPNPEYYTLRYADGPQLYVTEQTRNDIKNGTILQLAVS",–,9,7.8
